The chains are these.
B1: Cyanovirin-N, P81180 (parent)
chain: LGKFSQTCYNSAIQGSVLTSTCERTNGGYNTSSIDLNSVIENVDGSLKWQPSNFIETCRNTQLAGSSELAAECKTRAQQFVSTKINLDDHIANIDGTLKYE

This data set covers variants of B1. As to conditions: Nostoc ellipsosporum, pH 6, sodium phosphate 20 mM, transition: 2, reversible: yes(90%), structure 1IIY, whole UniProt chain shown; for denaturant m value / denaturant midpoint (higher = more stable): 25 °C, GdnHCl; for Tm / change of melting temperature, mutant - wild type (higher = more stable): Thermal.

As to P51G S11A S20A, where the note is “CD”, the denaturant m value was determined as 2.4 kcal/mol/M; the “denaturant midpoint (higher = more stable)” value (shortened to “denaturant midpoint”) turned out to be 2.5 M; the Tm is 69.6 °C; the “change of melting temperature, mutant - wild type (higher = more stable)” value (shortened to “change of melting temperature, mutant”) was 3 °C.
P51G: for the setting “CD”, the denaturant m value stood at 2.5 kcal/mol/M; the “denaturant midpoint” value came out at 2.2 M; the Tm is 64.3 °C; the “change of melting temperature, mutant” value is -2.3 °C. Under “fluorescence”, the denaturant m value is 2.6 kcal/mol/M and the “denaturant midpoint” value was determined as 2.3 M.
Regarding P51G S11A S20A T61I, for the setting “CD”, the denaturant m value amounted to 1.7 kcal/mol/M; the “denaturant midpoint” value is 3.3 M; the Tm worked out at 75.8 °C; the “change of melting temperature, mutant” value came out at 9.2 °C. For the same variant, under “fluorescence”, the denaturant m value was found to be 2.1 kcal/mol/M and the “denaturant midpoint” value was found to be 3.5 M.
With P51G S11I S20A, where the note is “CD”, the denaturant m value stood at 2 kcal/mol/M and the “denaturant midpoint” value is 3.1 M.
Turning to P51G S11V S20A, for the setting “CD”, the denaturant m value was found to be 2.6 kcal/mol/M; the “denaturant midpoint” value turned out to be 2.8 M; the Tm amounted to 69.8 °C; the “change of melting temperature, mutant” value is 3.2 °C. Also, under “fluorescence”, the denaturant m value is 2.6 kcal/mol/M and the “denaturant midpoint” value was 2.8 M.
For the variant P51G S11V S20A T61V, for the setting “CD”, the denaturant m value was found to be 1.7 kcal/mol/M; the “denaturant midpoint” value amounted to 2.9 M; the Tm was determined as 74.5 °C; the “change of melting temperature, mutant” value was 7.9 °C. Where the note is “fluorescence”, the denaturant m value was found to be 2.1 kcal/mol/M and the “denaturant midpoint” value came to 3 M.

For orientation: Tm means the temperature at the midpoint of the melting transition.

Values taken from FireProtDB (doi:10.1021/bi201411c).
